The source of these data is patent US20190010231A1 (Pieris, published 2019).

Test [1] deals with T1, human LAG-3-His (LAG-3 with C-terminal polyhistidine tag, ACROBiosystems) (human, UniProt P18627 23-450).
T1 construct: Bought protein; also called recombinant LAG-3-His
T1 sequence (looked up): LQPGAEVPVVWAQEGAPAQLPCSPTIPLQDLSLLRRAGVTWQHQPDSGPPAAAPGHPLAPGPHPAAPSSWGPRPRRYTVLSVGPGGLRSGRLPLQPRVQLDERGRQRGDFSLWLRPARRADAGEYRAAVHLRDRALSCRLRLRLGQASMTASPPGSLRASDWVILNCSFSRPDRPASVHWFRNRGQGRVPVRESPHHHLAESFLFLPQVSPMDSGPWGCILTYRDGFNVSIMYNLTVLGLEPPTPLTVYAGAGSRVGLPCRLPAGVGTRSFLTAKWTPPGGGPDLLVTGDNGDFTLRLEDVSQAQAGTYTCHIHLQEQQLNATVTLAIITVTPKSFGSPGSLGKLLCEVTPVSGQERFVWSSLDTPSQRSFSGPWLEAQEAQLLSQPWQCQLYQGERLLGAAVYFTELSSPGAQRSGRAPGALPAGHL
Nature of the test: ELISA: LAG-3-His coated, detection anti-Tlc antibody-HRP (an antibody without lipocalin part would not be seen by this detection; see Figure 3C for anti-Fc detection). A general note: ELISA stands for enzyme-linked immunosorbent assay.

The target of test [2] is T2, human LAG-3-Fc fusion (human LAG-3 extracellular domain fused to human IgG1 Fc fragment, R&D Systems) (human, UniProt P18627 23-450, biotinylated in Example 5 (sites not given)).
T2 construct: extracellular domain; also called huLAG-3-Fc; biotinylated human LAG-3-Fc; not shown: human IgG1 Fc fragment
T2 sequence (looked up): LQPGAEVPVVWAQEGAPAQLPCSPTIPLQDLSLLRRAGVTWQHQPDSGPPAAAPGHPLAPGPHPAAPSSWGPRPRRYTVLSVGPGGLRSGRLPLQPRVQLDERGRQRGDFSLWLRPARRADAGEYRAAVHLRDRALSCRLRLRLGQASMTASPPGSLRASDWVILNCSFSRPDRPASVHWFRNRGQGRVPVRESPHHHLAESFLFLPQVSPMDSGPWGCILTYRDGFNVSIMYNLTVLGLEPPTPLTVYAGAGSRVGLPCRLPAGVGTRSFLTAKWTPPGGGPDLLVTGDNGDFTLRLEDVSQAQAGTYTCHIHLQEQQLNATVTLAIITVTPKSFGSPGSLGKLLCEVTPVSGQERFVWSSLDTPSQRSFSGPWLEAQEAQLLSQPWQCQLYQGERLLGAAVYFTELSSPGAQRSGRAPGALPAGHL
The experiment in a line: dual-binding ELISA: PD-1-His coated, antibody titrated from 250 nM, then biotinylated huLAG-3-Fc 2 ug/mL, detection Extravidin-HRP, RFU. The protocol:
The plates were washed five times after each incubation step with 100 μL PBS-0.05% T. The plates were blocked with 2% BSA (w/v) in PBS-0.1% T for 1 h at room temperature and subsequently washed again. Different concentrations of the fusion polypeptides were added to the wells and incubated for 1 h at room temperature, followed by a wash step. […] After an additional wash step, fluorogenic HRP substrate (QuantaBlu, Thermo) was added to each well and the fluorescence intensity was detected using a fluorescence microplate reader.

B1: PD-1 specific benchmark antibody (SEQ ID NOs: 3 and 4) (antibody, human IgG4 S228P, kappa, V domains shown)
VH: QVQLVESGGGVVQPGRSLRLDCKASGITFSNSGMHWVRQAPGKGLEWVAVIWYDGSKRYYADSVKGRFTISRDNSKNTLFLQMNSLRAEDTAVYYCATNDDYWGQGTLVTVSS
VL: EIVLTQSPATLSLSPGERATLSCRASQSVSSYLAWYQQKPGQAPRLLIYDASNRATGIPARFSGSGSGTDFTLTISSLEPEDFAVYYCQQSSNWPRTFGQGTKVEIKR
notes: Engineered IgG4 backbone with the S228P mutation; also called PD-1-specific antibody
As to B1, the binding result in test [1] and in test [2] was “no binding (tested: 250 nM)” in each case.
